# In the Immune Epitope Database (IEDB):
# Target: HLA-A*02:01
# Test: IEDB peptide-MHC binding, purified MHC/direct/fluorescence; filed as Kd, often an IC50 or EC50 that approximates it; ≥ and ≤ were set here for values at or beyond the usual limits of such assays
# Details: source organism: Human immunodeficiency virus 1
row,Sequence,Kd
1,KSLFNTIATL,5 nM
2,KSLFNTIATLY,5 nM
3,KSLFNTIAVL,5 nM
4,KSLFNTIAVLY,5 nM
5,KSLFNTVATL,5 nM
6,KSLFNTVATLY,5 nM
7,KSLFNTVAVL,5 nM
8,KSLYNTIATL,5 nM
9,KSLYNTIATLY,20 nM
10,KSLYNTIAVL,5 nM
11,KSLYNTVATL,10 nM
12,KSLYNTVATLY,5 nM
13,KSLYNTVAVL,5 nM
14,KSLYNTVAVLY,5 nM
15,RSLFNTIATLY,5 nM
16,RSLFNTIAVL,5 nM
17,RSLFNTIAVLY,5 nM
18,RSLFNTVATL,5 nM

row,Sequence,Kd
1,RSLFNTVAVL,10 nM
2,RSLFNTVAVLY,5 nM
3,RSLYNTIATL,10 nM
4,RSLYNTIATLY,40 nM
5,RSLYNTIAVL,5 nM
6,RSLYNTIAVLY,5 nM
7,RSLYNTVATL,10 nM
8,RSLYNTVATLY,10 nM
9,RSLYNTVAVL,5 nM
10,RSLYNTVAVLY,10 nM
11,SLFNTIATLY,5 nM
12,SLFNTIAVLY,5 nM
13,SLFNTVATLY,5 nM
14,SLFNTVAVLY,5 nM
15,SLYNTIATLY,5 nM
16,SLYNTIAVLY,5 nM
17,SLYNTVAVLY,5 nM
